What is called Kd is the equilibrium constant for the complex coming apart. The IC50 is the concentration needed to halve the response being measured.

Assay [1] concerns the target T1, recombinant human IL-6 (human, UniProt P05231 30-212, limits assumed).
T1 construct: also called rhIL6; human recombinant IL-6
Put plainly: flow cytometry blocking assay: biotinylated rhIL-6 (12 ng/ml on the sheet; 12.5 ng/ml in paragraph 183) pre-incubated with the mAb, then U266 cells bearing IL-6 receptor added; cell-bound IL-6 shown with streptavidin-PE; readout % inhibition. As for the experimental part: FcR-blocked U266 cells (about 250,000 cells) were then added and co-incubated for another 30 min on ice. […] After washing, the cells were analyzed by flow cytometry.
(A flow cytometer gives signals particle by particle.)

A further assay concerns the target T2, recombinant rat IL-6 (rat, UniProt P20607 25-211).
T2 sequence (looked up): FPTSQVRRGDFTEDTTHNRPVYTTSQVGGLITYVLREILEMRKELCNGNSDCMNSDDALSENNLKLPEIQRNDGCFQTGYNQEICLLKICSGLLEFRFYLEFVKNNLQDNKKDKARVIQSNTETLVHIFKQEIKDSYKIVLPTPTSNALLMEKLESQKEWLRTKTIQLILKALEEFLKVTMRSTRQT
Put plainly: ELISA on coated rat IL-6; human mAbs detected with rabbit anti-human IgG-HRP; series 100, 50, 25, 12.5 ng/ml (antibody by paragraph 42; headed mIL-6 (ng/ml) on the sheet). As to the method: (§1) For sample “0,” no antibody was added. […] Each column represents a mean of two experiments +/− standard deviation.
(§2) For experiments using human monoclonal antibodies, IgG1 Kappa (human myeloma IgG1; Sigma-Aldrich Co.) mAb was used as a control. Rabbit anti-human IgG-HRP (Dako) was added at a dilution of 1/10,000 at 100 μl/well for detection of mAbs. […] For pAbs, Streptavidin-HRP (Prozyme) was added for detection at 100 μl/well. Antibodies were applied at concentrations of 12.5, 25, 50, and 100 ng/ml.

Assay [2] deals with T1, recombinant human IL-6. The assay can be described thus: Biacore 2000, mAb captured on anti-human IgG CM5 chip, human IL-6 40-1.25 nM injected. As for the experimental part:
(§3) IC50 ELISA was performed as described above. Affinity analysis by Biacore was performed according to manufacturer protocols using HBS-EP buffer (Biacore AB).

The target of a further assay is T3, recombinant murine IL-6 (murine, UniProt P08505 25-211).
T3 sequence (looked up): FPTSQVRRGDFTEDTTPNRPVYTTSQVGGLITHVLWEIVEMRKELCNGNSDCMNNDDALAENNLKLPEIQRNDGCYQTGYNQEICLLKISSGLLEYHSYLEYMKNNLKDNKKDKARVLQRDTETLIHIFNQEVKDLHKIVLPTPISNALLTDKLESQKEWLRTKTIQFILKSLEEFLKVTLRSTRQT
Put plainly: ELISA on coated murine IL-6; human mAbs detected with rabbit anti-human IgG-HRP; series 100, 50, 25, 12.5 ng/ml (antibody by paragraph 42; headed mIL-6 (ng/ml) on the sheet). As for the experimental part: as §1, §2

Assay [3] concerns the target T1, recombinant human IL-6. The assay can be described thus: competition ELISA, rhIL-6 in solution against captured IL-6 (Affinity (nM) by IC50 ELISA). As for the experimental part:
(§4) Briefly, plates were coated with 2 μg/ml of mBE4 capture antibody in coating buffer, 100 μl per well. The plates were incubated overnight. Next, the plates were washed 3 times and tapped dry. The plates were then blocked with 200 μl per well of Assay Diluent or 10% FBS in PBS and incubated for 2 hours. […] The reaction was left at RT for 3-4 hours. […] Next, the plates were washed 3 times and tapped dry. […] The plates were incubated for 1-2 hours. The plates were washed 3 times and tapped dry. […] The plates were incubated at RT for 2 hours. (Therefore, any unbound mAb at this point will be measured by ELISA). Plates were then washed 5 times and tapped dry. 100 μl of detection Ab goat anti-human IgG F(ab)′2-HRP (Jackson lab) was added at 1:20,000 dilutions or 1:40,000 dilutions (depending on lot) and the plates were incubated for 1-2 hours. The plates were washed 7 times and tapped dry. Next, the Developer Substrate (equal parts of each reagent in the kit) was pre-mixed and allowed to warm to room temperature before use. Then 100 μl of Developer was added to each well. The plates were allowed to develop for 15 minutes un-sealed in a drawer in the dark. Finally, developing was stopped by adding 100 μl of 2N H₂SO₄ to each well and plates were read as Endpoint at 450 nm-[…].
as §3
For orientation: ELISA stands for enzyme-linked immunosorbent assay.

The target of assay [4] is T1, recombinant human IL-6. The assay can be described thus: competition ELISA, rhIL-6 in solution against captured IL-6. As for the experimental part:
as §4

B1: murine mAb B-E8 (antibody, V domains shown)
VH: QVTLKESGPGILKPSQTLSLTCSFSGFSLSTSGMGVGWIRQPSGKGLEWLAHIWWDDDKYYNPSLKSQLTISKDTSRNQVFLKITSVDTADTATYYCARSYDDYLYYALDYWGQGTSVTVSS
VL: DIVMTQSPATLSVTPGDRVSLSCRASQSISDYLHWYQQKSHESPRLLIKSVSQSISGIPSRFSGSGSGSDFTLSINSVEPEDVGVYYCQNGHSFPLTFGAGTKLELK
modifications: Biotinylated in FIG. 16.
notes: Murine anti-IL-6 antibody from which the human mAbs were derived; also called Elsilimomab
Regarding B1, the “IC50 (read off the curve)” value with recombinant human IL-6 [1] is around 0.02 µg/mL.

B2: mAb 88 (chimeric B-E8 control antibody) (antibody, V domains shown)
VH: QVTLKESGPGILKPSQTLSLTCSFSGFSLSTSGMGVGWIRQPSGKGLEWLAHIWWDDDKYYNPSLKSQLTISKDTSRNQVFLKITSVDTADTATYYCARSYDDYLYYALDYWGQGTSVTVSS
VL: DIVMTQSPATLSVTPGDRVSLSCRASQSISDYLHWYQQKSHESPRLLIKSVSQSISGIPSRFSGSGSGSDFTLSINSVEPEDVGVYYCQNGHSFPLTFGAGTKLELK
modifications: Biotinylated in FIG. 16.
notes: Chimeric form of murine B-E8; also called control mAb 88
B2: the binding result with recombinant rat IL-6 is given as “no binding (tested: 100 ng/ml)”; in the assay with recombinant murine IL-6, “no binding (tested: 100 ng/ml (Ab: 0.1 µg/ml in the title))”. In addition, the dissociation constant (Kd) with recombinant human IL-6 [2] worked out at 20 pM. Also, in the assay with recombinant human IL-6 [1], the “IC50 (read off the curve)” value is around 0.02 µg/mL. Also, the figures for the concentration for half-maximal inhibition (IC50) in the assay with recombinant human IL-6 [3] and in the assay with recombinant human IL-6 [4] were 10 pM and 500 pM, respectively.

B3: mAb 416 (antibody, V domains shown)
VH: QVTLKESGPTLVKPTQTLTLTCSFSGFSLSTSGVGVGWVRQPPGKALEWLAFIFWDDDKYYSPSLESRLTITKDTSKNQVVLTMTNMDPVDTATYYCARSYDDYLYYALDYWGQGTLVT
VL: DIQMTQSPSSLSAFVGDGVTMTCWASQSINDYLNWYHQRPGEAPELLVFAASNLQIGVPSRFRGSGSETYFTLTINSLQPEDSGTYFCQNGHSFPLTFGGGTKLEI
For the molecule B3, the Kd with recombinant human IL-6 [2] worked out at 300 pM. The IC50 worked out at 56 pM with recombinant human IL-6 [3] and 600 pM with recombinant human IL-6 [4].

B4: mAb 1340 (antibody, V domains shown)
VH: QVTLKESGPTLVKPTQTLTLTCSFSGFSLSTSGVGVGWVRQPPGKALEWLAFIWWDDDKYYSPSLESRLTITKDTSKNQVVLTMTNMDPVDTATYYCARSADDYLYYSFDTWGQGTLVT
VL: DIQMTQSPSSLSAFVGDGVTMTCWASQSINDYLNWYHQRPGEAPELLVFAASNLQIGVPSRFRGSGSETYFTLTINSLQPEDSGTYFCQNGWSFPLTFGGGTKLEI
For the molecule B4, the IC50 with recombinant human IL-6 [3] and with recombinant human IL-6 [4] was 28 pM each time.

B5: mAb 1259 (antibody, V domains shown)
VH: QVTLKESGPTLVKPTQTLTLTCSFSGFSLSTSGVGVGWVRQPPGKALEWLAFIWWDDDKYYSPSLESRLTITKDTSKNQVVLTMTNMDPVDTATYYCARSADDYLYYSFDTWGQGTLVT
VL: DIQMTQSPSSLSAFVGDGVTMTCWASQSINDYLNWYHQRPGEAPELLVFAASNLQIGVPSRFRGSGSETYFTLTINSLQPEDSGTYFCQNGHSFPLTFGGGTKLEI
For B5, in the assay with recombinant human IL-6 [2], the Kd is 93 pM. Further, the IC50 in the assay with recombinant human IL-6 [3] and in the assay with recombinant human IL-6 [4] was 28 pM throughout.

B6: mAb 1338 (antibody, V domains shown)
VH: QVTLKESGPTLVKPTQTLTLTCSFSGFSLSTSGVGVGWVRQPPGKALEWLAFIWWDDDKYYSPSLESRLTITKDTSKNQVVLTMTNMDPVDTATYYCARSADDYLYYSFDTWGQGTLVT
VL: DIQMTQSPSSLSAFVGDGVTMTCWASQSINDYLNWYHQRPGEAPELLVFAASNLQIGVPSRFRGSGSETYFTLTINSLQPEDSGTYFCQSGHSFPLTFGGGTKLEI
As for B6, the Kd with recombinant human IL-6 [2] is 72 pM. Moreover, the half-maximal inhibitory concentration (IC50) with recombinant human IL-6 [3] and in the assay with recombinant human IL-6 [4] was 31 pM each time.

B7: mAb 1337 (antibody, V domains shown)
VH: QVTLKESGPTLVKPTQTLTLTCSFSGFSLSTSGVGVGWVRQPPGKALEWLAFIWWDDDKYYSPSLESRLTITKDTSKNQVVLTMTNMDPVDTATYYCARSADDYLYYSFDTWGQGTLVT
VL: DIQMTQSPSSLSAFVGDGVTMTCWASQSINDYLNWYHQRPGEAPELLVFAASNLQIGVPSRFRGSGSETYFTLTINSLQPEDSGTYFCQHGHSFPLTFGGGTKLEI
For the molecule B7, the IC50 with recombinant human IL-6 [3] and with recombinant human IL-6 [4] was 47 pM in each case.

B8: mAb 182 (antibody, V domains shown)
VH: QVTLKESGPALVKPTQTLTLTCTFSGFSLTTSGMCVSWIRQPPGKALEWLALIYWDDDKRYNPSLRSRLTITKDTSKNQVVLTMTNMDPVDTATYYCARSYDDYLYYALDYWGQGTLVT
VL: DIQMTQSPSSLSASVGDRVTITCRASQSISTYLNWYQQKLGKAPKLLIYAASSLQSGVPSRFSGSGSGTDFTLTISSLQPEDLATYYCQQSYRPLTFGGGTKLEIK
For B8, the half-maximal inhibitory concentration (IC50) in the assay with recombinant human IL-6 [4] was 6300 pM.

B9: mAb 183 (antibody, V domains shown)
VH: QVTLKESGPALVKPTQTLTLTCTFSGFSLTTSGMCVSWIRQPPGKALEWLALIYWDDDKRYNPSLRSRLTITKDTSKNQVVLTMTNMDPVDTATYYCARSYDDYLYYALDYWGQGTLVT
VL: DIQMTQSPSSLSASVGDSVTITCRASQSISIYLNWYQQKPGKAPDLLIYATSTLQSGVPSRFSGRGSGTHFTLTIDSLQPEDFATYYCQQTYRNLFTFGQGTKLE
Turning to B9, the IC50 with recombinant human IL-6 [4] stood at 1750 pM.

B10: mAb 184 (antibody, V domains shown)
VH: QVTLKESGPALVKPTQTLTLTCTFSGFSLTTSGMCVSWIRQPPGKALEWLALIYWDDDKRYNPSLRSRLTITKDTSKNQVVLTMTNMDPVDTATYYCARSYDDYLYYALDYWGQGTLVT
VL: DIQMTQSPSSLSASVGDSVTVTCRASQKMRTYLHWYQQKPGKAPKLLIYDVSFLQNGVPSRFSGRASGTEFTLTISDLQPEDFATYYCQQSYDTPLTFGQGTKLEIK
Regarding B10, the IC50 with recombinant human IL-6 [4] was found to be 2400 pM.

B11: mAb 926 (antibody, human IgG1, kappa, V domains shown)
VH: QVTLKESGPTLVKPTQTLTLTCSFSGFSLSTSGVGVGWVRQPPGKALEWLAFIFWDDDKYYSPSLESRLTITKDTSKNQVVLTMTNMDPVDTATYYCARSADDYLYYALDYWGQGTLVTVSS
VL: DIQMTQSPSSLSAFVGDGVTMTCWASQSINDYLNWYHQRPGEAPELLVFAASNLQIGVPSRFRGSGSETYFTLTINSLQPEDSGTYFCQNGHSFPLTFGGGTKLEIKR
For the molecule B11, the binding result with recombinant rat IL-6 is “no binding (tested: 100 ng/ml)”; with recombinant murine IL-6, “no binding (tested: 100 ng/ml (Ab: 0.1 µg/ml in the title))”. The dissociation constant (Kd) with recombinant human IL-6 [2] was determined as 130 pM. Also, the IC50 with recombinant human IL-6 [3] was 33 pM; with recombinant human IL-6 [4], 70 pM.
